Results: patent publication US7615380B2, “Methods for modulating an immune response by modulating KRC activity” (President and Fellows of Harvard College, priority 2001, dated 2009)
Like-named read-outs stand apart in the source and are kept apart here.

B1: KRC tr: truncated KRC, amino acid residues 204 to 1055 of SEQ ID NO:2 (protein, listed as Homo sapiens)
chain: PSVLQKHIRSHTGERPYPCGPCGFSFKTKSNLYKHRKSHAHRIKAGLASGMGGEMYPHGLEMERIPGEEFEEPTEGESTDSEEETSATSGHPAELSPRPKQPLLSSGLYSSGSHSSSHERCSLSQSSTAQSLEDPPPFVEPSSEHPLSHKPEDTHTIKQKLALRLSERKKVIDEQAFLSPGSKGSTESGYFSRSESAEQQVSPPNTNAKSYAEIIFGKCGRIGQRTAMLTATSTQPLLPLSTEDKPSLVPLSVPRTQVIEHITKLITINEAVVDTSEIDSVKPRRSSLSRRSSMESPKSSLYREPLSSHSEKTKPEQSLLSLQHPPSTAPPVPLLRSHSMPSAACTISTPHHPFRGSYSFDDHITDSEALSRSSHVFTSHPRMLKPQPAIELPLGGEYSSEEPGPSSKDTASKPSDEVEPKESELTKKTKKGLKTKGVIYECNICGARYKKRDNYEAHKKYYCSELQIAKPISAGTHTSPEAEKSQIEHEPWSQMMHYKLGTTLELTPLRKRRKEKSLGDEEEPPAFESTKSQFGSPGPSDAARNLPLESTKSPAEPSKSVPSLEGPTGFQPRTPKPGSGSESGKERRTTSKEISVIQHTSSFEKSDSLEQPSGLEGEDKPLAQFPSPPPAPHGRSAHSLQPKLVRQPNIQVPEILVTEEPDRPDTEPEPPPKEPEKTEEFQWPQRSQTLAQLPAEKAPPKKKRLRLAEMAQSSGESSFESSVPLSRSPSQESNVSLSGSSRSASFERDDHGKAEAPDPSSDMRPKPLGTHMLTVPSHHPHAREMRRSASEQSPNVSHSAHMTETRSKSFDYGSLSLTGPSAPAPVAPPAGEAPPERRKCFLVRSPSLSRPP

Legend:
AP-1 = AP-1 luciferase reporter in Jurkat cells, KRC-enhanced transactivation after PMA plus ionomycin; assay type: cell-based, human; conditions: pretreated with Rottlerin (10 μM), PMA plus ionomycin 6 hours
Method: FIG. 20(A) Jurkat cells were transiently transfected with AP-1 Luciferase reporter along with KRC and RasN17 DN vectors. 24 hours later cells were pretreated with Rottlerin (10 μM) and stimulated for 6 hours with PMA plus ionomycin. Luciferase activity was measured as above. FIG. 20(B) Jurkat cells were transfected with a GAL4 Luciferase reporter along with a GAL4 DNA binding domain, GAL4-ATF2, or GAL4-ELK1 with or without KRC. 24 hours later, cells were stimulated with PMA plus ionomycin and analyzed for Luciferase activity as above. FIG. 20(C) Jurkat cells were transiently transfected with FLAG-JNK2, and either Vector, KRC, or MKK7. 48 hours later, cells were stimulated with PMA plus ionomycin for 6 hours and JNK activity was determined by immunoprecipitation/kinase assay. Equal amounts of FLAG-Jnk2 protein were immunoprecipitated, as judged by anti-FLAG western blot (lower panel).
For each transfection, 5×10^6 Jurkat cells were incubated with either IL2-Luc, NFAT/AP1-Luc or AP1-Luc reporter DNA together with pEF vector or pEF-KRC and CMV-βGAL as normalization control in 0.4 ml of RPMI and transfected by electroporation (260 v, 975 uF). Transfected cells were cultured at 37° C. for 20 h in RPMI 1640 medium (Gibco BRL) supplemented with 10% fetal bovine serum. Transfected cells were stimulated with PMA (50 ng/ml) and ionomycin (2 uM) for 6 hours prior to luciferase (Promega) and β-galactosidase assays (Galacton-PLUS substrate system, TROPIX, Inc).

NFκB = NFκB luciferase reporter transfection assay in 293T cells; assay type: cell-based, human
Method: FIGS. 2(A)-2(C) depicts KRC preventing TRAF-dependent NFkB activation. Inhibition of TRAF2 (FIG. 2(A)), TRAF5 (FIG. 2(B)) and TRAF6 (FIG. 2(C)) mediated activation of NFkB by ectopically expressed KRC. 293 T cells (3×10^5 ) were transfected with 25 ng of NFkB luciferase reporter plasmid, 50 ng of CMVβGal and 1 μg of each indicated plasmid and 24 hours post transfection cells were harvested. Data from at least five experiments normalized for β galactosidase activity are shown. Vec refers to the empty MYC vector without the addition of TRAFs.
293 T cells (3×10^5 ) were transfected with 25 ng of NFκB luciferase reporter plasmid, 50 ng of CMVβGal and 1 μg of each indicated plasmid and 24 hours post transfection cells were stimulated for 4 hours with 10 ng/ml of TNFα. (A) KRC and KRC tr (B) dominant negative and antisense KRC (C) antisense KRC in the presence of exogenous TRAF2. Data from at least five experiments normalized for β galactosidase activity are shown.
HEK293 cells ([…] per well) were seeded in 6 well plates, and 12 h later cells were transfected with EFECTENE™ (Qiagen) with 25 ng of a 2XNFκB-luciferase (Luc) reporter gene plasmid and 0.5 μg of the indicated TRAF and KRC expression vectors. Total amounts of transfected DNA were kept constant by supplementing with control empty expression vector plasmids as needed. Cell extracts were prepared 24 h after transfection, and reporter gene activity was determined via the luciferase assay system (PROMEGA). PRSV-βGal vector (50 ng) was used to normalize for transfection efficiency by measuring β galactosidase activity using the Galacton-PLUS substrate system (TROPIX, Inc.). Whenever indicated, the cells were treated for 4 hours with TNFα or IL-1 (10 ng/ml). To generate stable transfectants, EFECTENE™ mediated transfection of the RAW cell line was performed and clones were selected and maintained in complete medium supplemented with G418 (2 mg/ml).

NIH 3T3 cells = assay: β-galactosidase cotransfection apoptosis assay in 3T3 cells; assay type: cell-based; conditions: TNFα 20 ng/ml
Method: 3T3 cells were cotransfected with CMV lacZ vector (300 ng per plate) and either empty expression vector or the expression vectors indicated (2 μg of each). Half of the transfected cultured cells were treated with TNFα (20 ng/ml) at 12 hours after the transfection and the other half left untreated. All the cells were fixed and stained at 36 hours after the transfection. The number of blue cells in each transfection was determined by counting six different fields. A representative experiment of three performed is presented.
β-galactosidase cotransfection assays for determination of cell death were performed as described (Hsu, et al.). Transfected NIH 3T3 cells were washed with PBS, fixed in PBS containing 3% paraformaldehyde for 10 min at 4° C., and washed with PBS. Fixed cells were stained overnight with XGal. The number of blue-stained cells was determined microscopically. The average number from one representative experiment of three is shown.

JNK = JNK in vitro kinase assay after transfection of 293 cells; assay type: cell-based, human; conditions: 293 cells cotransfected with TRAF2, 24 hours
Method: Inhibition of TRAF2 (A) and TNFα (B, C) mediated JNK/SAPK activation by ectopic expression of KRC. (A) 293 T cells were transfected with 400 ng of TRAF2 and 2 μg of the indicated expression vector. Twenty-four hours after the transfection, the cells were harvested and lysed, and the endogenous JNK was precipitated with 5 μg of GST-cJUN (1-79) for 4 hours. JNK activity was determined by using GST-cJUN (1-79) as a substrate. (B,C) 293 T cells were cotransfected with vectors encoding HA-tagged JNK2 (500ng) and the indicated expression vector (2 μg). Twenty-four hours after the transfection cells were stimulated for 10 min with 10 ng/ml of TNFα and cells harvested at varying time points. JNK activity was assayed with GST-cJUN (1-79) as substrate.
Anti-HA or anti-FLAG immunoprecipitates were used for immune complex kinase assays that were performed at 30° C. for 30 min with 1 μg of substrate, 10 μCi of γ^32 P ATP, and 10 μM ATP in 30 μl of kinase buffer (20 mM HEPES, pH 7.4, 10 mM MgCl2, 25 mM β-glycerophosphate, 50 μm NA3VO4, and 50 μm DTT). The substrate was GST-c-JUN.

c-Jun = target: T1, c-Jun (Homo sapiens, UniProt P05412); assay: Coimmunoprecipitation / in vitro pull down with c-Jun; assay type: binding
T1 construct: expressed in transfected cells; host or cells: 293T cells (co-IP); in vitro translated, 35S-labelled c-Jun in the pull-down
Method: FIG. 21(A) 293T cells were transfected with c-Jun and myc-KRCtr. 48 hours later, lysates were immunoprecipitated with anti-Myc antibody. Immunoprecipitates were probed by western blotting with anti-c-Jun antibody. FIG. 21(B) (left panel) 293T cells were cotransfected with c-Jun and full length His-KRC. 48 hours later, lysates were immunoprecipitated with anti-His antibody (DE8 Omniprobe) and precipitates were probed by western blotting with anti-c-Jun antibody. (right panel) In vitro translated and S35-labelled c-Jun and His-KRCtr were mixed and immunoprecipitated with anti-His antibody. Recovered c-Jun protein was visualized by autoradiography. FIG. 21(C) Jurkat or EL4 T cells were stimulated with PMA plus ionomycin for 45 minutes. Lysates were immunoprecipitated with anti-c-Jun antibody, and immunoprecipitates were probed with specific anti-KRC rabbit antisera. FIG. 21(D) (upper panel) 293T cells were transfected with AP-1 Luciferase along with c-Jun, c-Fos, and KRC. 24 hours later, Luciferase activity was determined as above. (lower panel) 293T cells were transfected with GAL4 Luciferase along with GAL4, GAL4-c-Jun 1-224, or GAL4-c-Fos 208-313. 24 hours later, luciferase activity was determined as above. […]

T1 sequence (P05412 whole entry): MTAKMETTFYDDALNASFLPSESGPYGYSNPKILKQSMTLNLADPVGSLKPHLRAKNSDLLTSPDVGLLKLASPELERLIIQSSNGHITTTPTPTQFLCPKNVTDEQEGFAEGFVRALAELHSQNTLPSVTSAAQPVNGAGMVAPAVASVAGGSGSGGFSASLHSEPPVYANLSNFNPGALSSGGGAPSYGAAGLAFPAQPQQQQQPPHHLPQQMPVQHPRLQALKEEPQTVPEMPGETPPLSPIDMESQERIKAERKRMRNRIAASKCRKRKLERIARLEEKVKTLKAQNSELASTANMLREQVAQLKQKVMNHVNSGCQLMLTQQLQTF

Molecule | KRC transactivation of the AP-1 reporter (AP-1) | KRC transactivation of the AP-1 reporter (AP-1; listed as rottlerin) | NFκB activation induced by TRAF5 and TRAF6 (NFκB; 293T cells) | NFkB-dependent transactivation (NFκB; 293T cells, absence of exogenous TRAFs) | TRAF2-induced NFκB activation (NFκB; 293T cells, exogenous TRAF2) | TNFα-induced NFκB activation (NFκB; 293 cells, 10 ng/ml TNFα 4 hours) | TNFα-induced apoptosis (TNF mediated cytotoxicity) (NIH 3T3 cells) | TRAF2-dependent JNK activation (JNK) | physical association with c-Jun (c-Jun) | physical association with c-Jun (c-Jun; listed as KRCtr)
CC(=O)c1c(O)c(C)c(O)c(Cc2c(O)c3c(c(C(=O)/C=C/c4ccccc4)c2O)OC(C)(C)C=C3)c1O [Rottlerin] | blocked | abolished the ability of KRC to enhance AP-1 transactivation |  |  |  |  |  |  |  | 
RasN17: dominant negative Ras | abolished the ability of KRC to enhance AP-1 transactivation |  |  |  |  |  |  |  |  | 
B1 |  |  | substantially but not completely affected | blocked NFkB-dependent transactivation | blocked TRAF2-induced NFκB activation | strongly inhibited TNFα-induced NFκB activation | The same effect was observed | blocked TRAF2-dependent JNK activation | physically associated with c-Jun | interacted with c-Jun
